For assay [1], the target named is T1, human PD-1 protein (Acro, Catalog No. PD1-H5221) (human, UniProt Q15116 25-167).
T1 construct: Bought protein; also called human PD1-his; not shown: his tag
In words: ELISA, plate coated with human PD-1 protein. How it is done: ELISA was used to determine the activity of the trispecific antibodies binding to the PD-1 protein: 1 μg/mL human PD-1 protein (Acro, Catalog No.: PD1-H5221) was used to coat a high-adsorption 96-well ELISA plate and incubated at 4° C. overnight. On the next day, the plate was washed three times with PBST solution and blocked with 1% BSA-PBS solution at 37° C. for 1 hour. At the same time, 3-fold gradient dilutions of the antibody were prepared with 1% BSA-PBS solution, with a starting concentration of 10 nM. The antibodies of each gradient concentration were added to the blocked 96-well ELISA plate at 100 µL/well in triplicate and incubated at 37° C. for 1 hour. The plate was then washed three times with 0.05% PBST solution, and 100 μL/well of HRP-labeled secondary antibody (Sigma, Catalog No.: A0170) diluted at 1:5000 was added to the ELISA plate and incubated at 37° C. for 1 hour. The plate was washed three times with 0.05% PBST solution and developed with TMB. The absorbance of the 96-well ELISA plate at 450 nm was detected by an ELISA reader. The OD₄₅₀ value was fitted using a four-parameter model to calculate the EC₅₀ value of each antibody binding to PD-1.
(In general: An ELISA detects its analyte on a solid surface through an enzyme-linked reagent.)

For assay [2], the target named is human PD-1 protein (Acro, PD1-H5257) (human, UniProt Q15116 25-167). The assay is described as follows: competitive ELISA, PD-1 coated, biotin-PD-L1 as labelled ligand. How it is done:
The next day, the plate was washed three times with PBS solution and blocked with 1% BSA-PBS solution at 37° C. for 1 hour. […] 100 μL of the antibody-protein mixture was added to each well of the blocked 96-well ELISA plate and incubated at 37° C. for 1 hour. After washing four times with PBST, 100 μL of Strep-HRP (BD, Catalog No. 554066) diluted 1:5000 was added to each well of the ELISA plate and incubated at 37° C. for 1 hour. After washing 4 times with PBST, TMB was used for color development. The absorbance at 450 nm and 630 nm was detected by a microplate reader, and OD450-OD630 was calculated. The fluorescence intensity was fitted using a four-parameter model, and the IC₅₀ value of the blocking activity of each antibody was calculated.

Assay [3] deals with T2, human PD-1 on the cell surface (human, UniProt Q15116 25-288).
T2 construct: whole, on cells; also called cell surface PD-1
T2 sequence (Q15116 25-288): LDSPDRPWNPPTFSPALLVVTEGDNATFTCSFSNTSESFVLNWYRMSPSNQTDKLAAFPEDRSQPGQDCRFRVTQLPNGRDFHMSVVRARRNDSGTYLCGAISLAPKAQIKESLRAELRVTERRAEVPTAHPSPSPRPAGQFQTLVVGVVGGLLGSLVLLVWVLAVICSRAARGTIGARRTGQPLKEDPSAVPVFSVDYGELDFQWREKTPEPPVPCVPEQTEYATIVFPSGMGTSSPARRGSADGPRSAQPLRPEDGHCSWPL
The assay is described as follows: flow cytometry on activated human T cells (CD3+), PE anti-human IgG Fc. On the procedure:
(§1) Human peripheral blood mononuclear cells (PBMCs, Miaoshun (Shanghai) Biotechnology Co., Ltd., Catalog No.: A19K154025) were rapidly thawed in a 37° C. water bath, resuspended in T cell isolating solution, and counted. After centrifugation at 400 g for 10 minutes, the supernatant was removed and the cells were resuspended to 5×10⁷ cells/mL with T cell separation buffer. T cells were isolated according to the procedure of a T cell isolation kit (Stemcell, Catalog No.: 19051), and the obtained T cells were resuspended in culture medium. The cells were counted using NucleoCounter NC-200 and the T cell density was adjusted to approximately 1×10⁶ cells/mL. Dynabeads containing anti-CD3 and anti-CD28 antibodies (Invitrogen™, Catalog No.: 11132D) and 10 ng/ml hIL-2 (Peprotech, Catalog No.: 200-02) were added and cultured in a 37° C., 5% CO₂ incubator for 3 days. After removing Dynabeads and supernatant, the activated T cells were resuspended in FACS buffer. The cell density was adjusted to about 1×10⁶ cells/mL, and 100 μL of cell solution was added into a 96-well U-bottom plate, 1×10⁵ cells/well. After centrifugation at 500 g for 5 minutes, the supernatant was discarded and 100 μL of the trispecific antibody solution of the present application serially diluted 3-fold with FACS buffer was added in triplicate, with a starting concentration of 200 nM. After mixing, incubated at 4° C. for 60 minutes. After centrifugation and washing three times with FACS buffer, 100 μL/well of PE anti-human IgG Fc (Biolegend, Catalog No.: 366903) was added and incubated at 4° C. for 50 minutes. After washing the plate three times with FACS buffer, 100 μL/well of BV421 anti-human CD3 antibody (OKT3) (Biolegend, Catalog No.: 317344) was added and incubated at 4° C. for 50 minutes. After washing the plate three times with FACS buffer, 70 μL/well of PBS solution was added to resuspend the cells, and the fluorescent signal on CD3 T cells was detected on a flow cytometer (BD Cellesta). The binding activity was fitted using a four-parameter model, and the EC₅₀ value of each antibody binding to T cells was calculated.
Background: Flow cytometry measures light scatter and fluorescence of single cells or particles in a stream.

Assay [4] addresses T2, human PD-1 on the cell surface. In words: blocking of PD-L1 binding to cell surface PD-1, comparison with pembrolizumab; comparison run with pembrolizumab, cell surface PD-1.
For assay [5] the target is unchanged. The assay is described as follows: flow cytometry competition, 293T-hPD-1 cells, biotin-human PD-L1. On the procedure:
50 μL of antibody solution serially diluted 3-fold in FACS buffer was added in triplicate, with a starting concentration of 200 nM. After mixing, incubated at 4° C. for 60 minutes. After washing three times with FACS buffer, 100 μL/well of 1:800 diluted PE Streptavidin was added and incubated at 4° C. for 50 min. After washing three times with FACS buffer, 150 μL/well of PBS was added to resuspend the cells, and the fluorescence signal was detected on a flow cytometer (BECKMAN COULTER cytoFLEX). The four-parameter model was used to fit the binding activity and the IC₅₀ value of the blocking activity of each antibody was calculated.

Assay [6] has the same target. In words: flow cytometry, 293T-hPD-1 cells, comparison with pembrolizumab. On the procedure: (§2) After centrifugation at 300 g for 5 minutes, the supernatant was discarded. The antibodies were serially diluted 3-fold with FACS buffer to obtain two gradient series solution FACS #1 and FACS #2, with the starting concentration of 200 nM (Table 5, FACS #1) or 100 nM (Table 5, FACS #2, FIG. 2), respectively. Then 100 μL/well was added to a 96-well plate in triplicate, mixed, and incubated at 4° C. for 60 min. The plate was centrifuged and washed three times with FACS buffer. 100 μL/well of 1:800 diluted AF647-anti-hIgG(H+L) (Jackson, Catalog No.: 109-605-003) was added and incubated at 4° C. for 50 minutes. After washing the plate three times with FACS buffer, 100 μL/well of FACS buffer was added to resuspend the cells, and the fluorescence signal was detected on a flow cytometer (BECKMAN COULTER cytoFLEX). The binding activity was fitted using a four-parameter model to calculate the EC₅₀ value of each antibody binding to PD-1.

Assay [7] shares this target. The assay is described as follows: flow cytometry, 293T-hPD-1 cells, batch FACS#1. On the procedure: as §2
The target in assay [8] is T1, human PD-1 protein (Acro, Catalog No. …). The assay is described as follows: BLI (Octet RED96e), antibody on AHC sensor, antigen as analyte 6.25-100 nM, 1:1 model. On the procedure: Octet® RED96e (ForteBio) was used to detect the affinity of trispecific antibodies to human PD-1, CTLA-4 and VEGFA. The specific method was as follows: the AHC Sensor was immersed in PBST (PBS containing 0.02% Tween) buffer for 10 minutes to activate the Sensor. The ligand (antibody to be tested) was diluted to 5 μg/mL with PBST buffer. […] The diluted ligand and analyte were added to the corresponding wells at 200 μL/well in triplicate. Program parameter settings: loading: 180 s, association: 180 s, dissociation: 600 s, regeneration: Gly-HCl pH 1.5, 30s, regeneration 3 times. […] Curve fit acceptance criteria: Full R\hat{ }2≥0.95.
On the technique in general: In BLI a coated tip is dipped into the sample, and binding shifts an interference pattern.

Assay [9] has as its target T2, human PD-1 on the cell surface. In words: flow cytometry, 293T-hPD-1 cells, batch FACS#2. On the procedure: as §2
The target of assay [10] is T3, human CTLA-4 on the cell surface (human, UniProt P16410 36-223).
T3 construct: whole, on cells; also called CHO-hCTLA-4 cells; CHOK1-hCTLA4 cells
T3 sequence (P16410 36-223): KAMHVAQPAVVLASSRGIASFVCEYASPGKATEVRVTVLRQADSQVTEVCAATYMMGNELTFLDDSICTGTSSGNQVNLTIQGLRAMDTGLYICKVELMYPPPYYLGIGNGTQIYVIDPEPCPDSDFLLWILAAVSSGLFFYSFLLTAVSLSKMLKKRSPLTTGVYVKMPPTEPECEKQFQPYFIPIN
In words: flow cytometry competition, 293T-hPD-1-hCTLA-4 cells (PD-1 co-expressed), biotin-human CD80. On the procedure: PD-1 and CTLA-4 are co-expressed on functionally exhausted T cells in the tumor microenvironment, and the expression level of PD-1 is higher than that of CTLA-4. […] 200 μL of the cells were added to a 96-well U-bottom plate, approximately 1.4×10⁵ cells/well. After centrifugation at 300 g for 5 minutes, the supernatant was discarded. […] After washing three times with FACS buffer, 100 μL/well of 1:800 diluted PE Streptavidin was added and incubated at 4° C. for 50 min. After washing three times with FACS buffer, 150 μL/well of PBS was added to resuspend the cells, and the fluorescence signal was detected on a flow cytometer (BECKMAN COULTER cytoFLEX). The binding activity was fitted using a four-parameter model, and the IC₅₀ value of the blocking activity of each antibody was calculated.

Assay [11] concerns the target T3, human CTLA-4 on the cell surface. The assay is described as follows: flow cytometry on activated human T cells (CD3+), PE anti-human IgG Fc. How it is done: as §1
For assay [12] the target is unchanged. The assay is described as follows: flow cytometry competition, CHO-hCTLA-4 cells, biotin-human CD80. How it is done: CHO-hCTLA-4 cells were obtained by trypsin digestion, washed twice with PBS containing 2% FBS (FACS buffer), and resuspended in FACS buffer. 200 μL of the cells were added to a 96-well U-bottom plate, approximately 2×10⁵ cells/well. After centrifugation at 300 g for 5 minutes, the supernatant was discarded. […] After washing three times with FACS buffer, 100 μL/well of 1:800 diluted PE Streptavidin was added and incubated at 4° C. for 50 min. After washing three times with FACS buffer, 150 μL/well of PBS was added to resuspend the cells, and the fluorescence signal was detected on a flow cytometer (BECKMAN COULTER cytoFLEX). The four-parameter model was used to fit the binding activity and the IC₅₀ value of the blocking activity of each antibody was calculated.

For assay [13] the target is unchanged. The assay is described as follows: flow cytometry, CHO-hCTLA-4 cells, batch FACS#3.

T1 sequence (Q15116 25-167 limits assumed): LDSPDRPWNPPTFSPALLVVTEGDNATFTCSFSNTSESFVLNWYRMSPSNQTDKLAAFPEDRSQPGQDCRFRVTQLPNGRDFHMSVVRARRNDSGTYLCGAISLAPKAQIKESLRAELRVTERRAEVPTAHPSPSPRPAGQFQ
Chain of human PD-1 protein (Acro, PD1-H5257) (Q15116 25-167 limits assumed): as above

B1: CQ1-3/1-11-hIgG4 antibody (antibody, V domains shown)
VH: EVQLVESGGGLVQPGGSLRLSCAASGFTFSSYGMSWVRQAPGKGLEWVSTISGGGRDTYYPDSVKGRFTISRDNSKNTLYLQMNSLRAEDTAVYYCARQNGITWFADWGQGTLVTVSS
VL: DIQMTQSPSSLSASVGDRVTITCRASESVDNYGISFMNWYQQKPGKAPKLLIYAASNQGSGVPSRFSGSGSGTDFTLTISSLQPEDFATYYCQQSKEVPWTFGGGTKVEIKR
notes: also called anti-PD-1 antibody CQ1-3/1-11
For orientation: EC50 means the concentration that produces a half-maximal response. Read a high EC50 as a need for much substance. For orientation: IC50 means the concentration needed to halve the response being measured. In general, Kd refers to the equilibrium constant for the complex coming apart. On to B1, for which the concentration giving a half-maximal response (EC50) in [1] turned out to be 0.041 nM; in assay [3], 0.244 nM; in assay [6], 4.34 nM; in assay [7], 2.8 nM; in [9] it was 1.12 nM. In addition, the IC50 is 0.731 nM in [2], 3.19 nM in [4] and 4 nM in assay [5]. Besides, in [8], binding was characterised by a dissociation constant (Kd) of 1.96 nM.

B2: 202F1-hIgG4 antibody (antibody, V domains shown)
VH: EVQLLESGGGLVQPGGSLRLSCAASGSIFSINHMAWYRQAPGKQRELVAGVNSRGTTNYVDSVKGRFTISRDNSKNTLYLQMNSLRAEDTAVYYCRALGGAVAAWGQGTLVTVSS
Consider B2, for which the IC50 in [10] was found to be 4.74 nM; in [12] it was 10.1 nM. Further, the results for the EC50 in assay [11] and in [13] were 1.46 nM and 2.31 nM, respectively.

These data come from patent publication US20260116960A1 (SHANGHAI HONGCHENG BIOPHARMACEUTICAL, published 2026).
